Measured values taken from PMC7862291, “Full-length in meso structure and mechanism of rat kynurenine 3-monooxygenase inhibition” (Communications Biology, 2021).

Target: the molecule itself
Test: crystal structure; in meso (lipidic cubic phase, 9:1 monoolein:cholesterol); Rat-KMO with compound 3 (and NADPH) or compound 4; 3.0 Å

B1: full-length Rattus norvegicus kynurenine 3-monooxygenase (Rat-KMO), crystallisation construct (enzyme, Rattus norvegicus (rat), UniProt O88867 1-478, looked up)
chain: MASSDTEGKRVVVIGGGLVGALNACFLAKRNFQVDVYEAREDIRVANFMRGRSINLALSYRGRQALKAVGLEDQIVSKGVPMKARMIHSLSGKKSAIPYGNKSQYILSISREKLNKDLLTAVESYPNAKVHFGHKLSKCCPEEGILTMLGPNKVPRDITCDLIVGCDGAYSTVRAHLMKKPRFDYSQQYIPHGYMELTIPPKNGEYAMEPNCLHIWPRNAFMMIALPNMDKSFTCTLFMSFEEFEKLPTHSDVLDFFQKNFPDAIPLMGEQALMRDFFLLPAQPMISVKCSPFHLKSRCVLMGDAAHAIVPFFGQGMNAGFEDCLVFDELMDKFNNDLSVCLPEFSRFRIPDDHAISDLSMYNYIEMRAHVNSRWFLFQRLLDKFLHALMPSTFIPLYTMVAFTRIRYHEAVLRWHWQKKVINRGLFVLGSLVAIGSAYILVHHLSPRPLELLRSAWTGTSGHWNRSADISPRVPWSH
notes: thrombin site between GST and the N-terminus, TEV site before the C-terminal FLAG tag; C-terminus disordered from H443 in the structure; crystallised in meso with compound 3 or compound 4; No TEV cleavage is described; Treated with N-Glycosidase F; also called full-length KMO (1-478); not shown: GST, N-terminal, cleaved
stoichiometry N: 2
